The text below walks through data of patent publication US20210388087A1 (Chugai, published 2021).

The labels stand for the following.
B1: CE115HA000/GLS3000 H27dI (antibody, IgG1, name in Kabat numbering, V domains shown)
VH: QVQLVESGGGVVQPGRSLRLSCAASGFTFSNAWMHWVRQAPGKGLEWVAQIKAKSNNYATYYAESVKGRFTISRDDSKNSLYLQMNSLKTEDTAVYYCRYVHYGAYYGVDAWGQGTTVTVSS
VL: DIVMTQSPLSLPVTPGEPASISCRSSQSLVISNRNTYLHWYQQKPGQAPRLLIYKVSNRFSGVPDRFSGSGSGTDFTLKISRVEAEDVGVYYCGQGTQVPYTFGQGTKLEIK
notes: one-arm IgG1
B2: CE115HA000/GLS3000 H34D (antibody, IgG1, name in Kabat numbering, V domains shown)
VH: QVQLVESGGGVVQPGRSLRLSCAASGFTFSNAWMHWVRQAPGKGLEWVAQIKAKSNNYATYYAESVKGRFTISRDDSKNSLYLQMNSLKTEDTAVYYCRYVHYGAYYGVDAWGQGTTVTVSS
VL: DIVMTQSPLSLPVTPGEPASISCRSSQSLVHSNRNTYLDWYQQKPGQAPRLLIYKVSNRFSGVPDRFSGSGSGTDFTLKISRVEAEDVGVYYCGQGTQVPYTFGQGTKLEIK
notes: one-arm IgG1
B3: CE115HA000/GLS3000 H27dY (antibody, IgG1, name in Kabat numbering, V domains shown)
VH: QVQLVESGGGVVQPGRSLRLSCAASGFTFSNAWMHWVRQAPGKGLEWVAQIKAKSNNYATYYAESVKGRFTISRDDSKNSLYLQMNSLKTEDTAVYYCRYVHYGAYYGVDAWGQGTTVTVSS
VL: DIVMTQSPLSLPVTPGEPASISCRSSQSLVYSNRNTYLHWYQQKPGQAPRLLIYKVSNRFSGVPDRFSGSGSGTDFTLKISRVEAEDVGVYYCGQGTQVPYTFGQGTKLEIK
notes: one-arm IgG1
B4: CE115HA000/GLS3000 H27dW (antibody, IgG1, name in Kabat numbering, V domains shown)
VH: QVQLVESGGGVVQPGRSLRLSCAASGFTFSNAWMHWVRQAPGKGLEWVAQIKAKSNNYATYYAESVKGRFTISRDDSKNSLYLQMNSLKTEDTAVYYCRYVHYGAYYGVDAWGQGTTVTVSS
VL: DIVMTQSPLSLPVTPGEPASISCRSSQSLVWSNRNTYLHWYQQKPGQAPRLLIYKVSNRFSGVPDRFSGSGSGTDFTLKISRVEAEDVGVYYCGQGTQVPYTFGQGTKLEIK
notes: one-arm IgG1
B5: CE115HA000/GLS3000 H27dS (antibody, IgG1, name in Kabat numbering, V domains shown)
VH: QVQLVESGGGVVQPGRSLRLSCAASGFTFSNAWMHWVRQAPGKGLEWVAQIKAKSNNYATYYAESVKGRFTISRDDSKNSLYLQMNSLKTEDTAVYYCRYVHYGAYYGVDAWGQGTTVTVSS
VL: DIVMTQSPLSLPVTPGEPASISCRSSQSLVSSNRNTYLHWYQQKPGQAPRLLIYKVSNRFSGVPDRFSGSGSGTDFTLKISRVEAEDVGVYYCGQGTQVPYTFGQGTKLEIK
notes: one-arm IgG1
B6: CE115HA000/GLS3000 H27dP (antibody, IgG1, name in Kabat numbering, V domains shown)
VH: QVQLVESGGGVVQPGRSLRLSCAASGFTFSNAWMHWVRQAPGKGLEWVAQIKAKSNNYATYYAESVKGRFTISRDDSKNSLYLQMNSLKTEDTAVYYCRYVHYGAYYGVDAWGQGTTVTVSS
VL: DIVMTQSPLSLPVTPGEPASISCRSSQSLVPSNRNTYLHWYQQKPGQAPRLLIYKVSNRFSGVPDRFSGSGSGTDFTLKISRVEAEDVGVYYCGQGTQVPYTFGQGTKLEIK
notes: one-arm IgG1
B7: CE115HA000/GLS3000 H27dN (antibody, IgG1, name in Kabat numbering, V domains shown)
VH: QVQLVESGGGVVQPGRSLRLSCAASGFTFSNAWMHWVRQAPGKGLEWVAQIKAKSNNYATYYAESVKGRFTISRDDSKNSLYLQMNSLKTEDTAVYYCRYVHYGAYYGVDAWGQGTTVTVSS
VL: DIVMTQSPLSLPVTPGEPASISCRSSQSLVNSNRNTYLHWYQQKPGQAPRLLIYKVSNRFSGVPDRFSGSGSGTDFTLKISRVEAEDVGVYYCGQGTQVPYTFGQGTKLEIK
notes: one-arm IgG1
B8: CE115HA000/GLS3000 H27dM (antibody, IgG1, name in Kabat numbering, V domains shown)
VH: QVQLVESGGGVVQPGRSLRLSCAASGFTFSNAWMHWVRQAPGKGLEWVAQIKAKSNNYATYYAESVKGRFTISRDDSKNSLYLQMNSLKTEDTAVYYCRYVHYGAYYGVDAWGQGTTVTVSS
VL: DIVMTQSPLSLPVTPGEPASISCRSSQSLVMSNRNTYLHWYQQKPGQAPRLLIYKVSNRFSGVPDRFSGSGSGTDFTLKISRVEAEDVGVYYCGQGTQVPYTFGQGTKLEIK
notes: one-arm IgG1
B9: CE115HA000/GLS3000 H34G (antibody, IgG1, name in Kabat numbering, V domains shown)
VH: QVQLVESGGGVVQPGRSLRLSCAASGFTFSNAWMHWVRQAPGKGLEWVAQIKAKSNNYATYYAESVKGRFTISRDDSKNSLYLQMNSLKTEDTAVYYCRYVHYGAYYGVDAWGQGTTVTVSS
VL: DIVMTQSPLSLPVTPGEPASISCRSSQSLVHSNRNTYLGWYQQKPGQAPRLLIYKVSNRFSGVPDRFSGSGSGTDFTLKISRVEAEDVGVYYCGQGTQVPYTFGQGTKLEIK
notes: one-arm IgG1
B10: CE115HA000/GLS3000 H27dT (antibody, IgG1, name in Kabat numbering, V domains shown)
VH: QVQLVESGGGVVQPGRSLRLSCAASGFTFSNAWMHWVRQAPGKGLEWVAQIKAKSNNYATYYAESVKGRFTISRDDSKNSLYLQMNSLKTEDTAVYYCRYVHYGAYYGVDAWGQGTTVTVSS
VL: DIVMTQSPLSLPVTPGEPASISCRSSQSLVTSNRNTYLHWYQQKPGQAPRLLIYKVSNRFSGVPDRFSGSGSGTDFTLKISRVEAEDVGVYYCGQGTQVPYTFGQGTKLEIK
notes: one-arm IgG1
B11: CE115HA000/GLS3000 H34L (antibody, IgG1, name in Kabat numbering, V domains shown)
VH: QVQLVESGGGVVQPGRSLRLSCAASGFTFSNAWMHWVRQAPGKGLEWVAQIKAKSNNYATYYAESVKGRFTISRDDSKNSLYLQMNSLKTEDTAVYYCRYVHYGAYYGVDAWGQGTTVTVSS
VL: DIVMTQSPLSLPVTPGEPASISCRSSQSLVHSNRNTYLLWYQQKPGQAPRLLIYKVSNRFSGVPDRFSGSGSGTDFTLKISRVEAEDVGVYYCGQGTQVPYTFGQGTKLEIK
notes: one-arm IgG1
B12: CE115HA000/GLS3000 H27dK (antibody, IgG1, name in Kabat numbering, V domains shown)
VH: QVQLVESGGGVVQPGRSLRLSCAASGFTFSNAWMHWVRQAPGKGLEWVAQIKAKSNNYATYYAESVKGRFTISRDDSKNSLYLQMNSLKTEDTAVYYCRYVHYGAYYGVDAWGQGTTVTVSS
VL: DIVMTQSPLSLPVTPGEPASISCRSSQSLVKSNRNTYLHWYQQKPGQAPRLLIYKVSNRFSGVPDRFSGSGSGTDFTLKISRVEAEDVGVYYCGQGTQVPYTFGQGTKLEIK
notes: one-arm IgG1
B13: CE115HA000/GLS3000 H34I (antibody, IgG1, name in Kabat numbering, V domains shown)
VH: QVQLVESGGGVVQPGRSLRLSCAASGFTFSNAWMHWVRQAPGKGLEWVAQIKAKSNNYATYYAESVKGRFTISRDDSKNSLYLQMNSLKTEDTAVYYCRYVHYGAYYGVDAWGQGTTVTVSS
VL: DIVMTQSPLSLPVTPGEPASISCRSSQSLVHSNRNTYLIWYQQKPGQAPRLLIYKVSNRFSGVPDRFSGSGSGTDFTLKISRVEAEDVGVYYCGQGTQVPYTFGQGTKLEIK
notes: one-arm IgG1
B14: CE115HA000/GLS3000 H27dR (antibody, IgG1, name in Kabat numbering, V domains shown)
VH: QVQLVESGGGVVQPGRSLRLSCAASGFTFSNAWMHWVRQAPGKGLEWVAQIKAKSNNYATYYAESVKGRFTISRDDSKNSLYLQMNSLKTEDTAVYYCRYVHYGAYYGVDAWGQGTTVTVSS
VL: DIVMTQSPLSLPVTPGEPASISCRSSQSLVRSNRNTYLHWYQQKPGQAPRLLIYKVSNRFSGVPDRFSGSGSGTDFTLKISRVEAEDVGVYYCGQGTQVPYTFGQGTKLEIK
notes: one-arm IgG1
B15: CE115HA000/GLS3000 H34E (antibody, IgG1, name in Kabat numbering, V domains shown)
VH: QVQLVESGGGVVQPGRSLRLSCAASGFTFSNAWMHWVRQAPGKGLEWVAQIKAKSNNYATYYAESVKGRFTISRDDSKNSLYLQMNSLKTEDTAVYYCRYVHYGAYYGVDAWGQGTTVTVSS
VL: DIVMTQSPLSLPVTPGEPASISCRSSQSLVHSNRNTYLEWYQQKPGQAPRLLIYKVSNRFSGVPDRFSGSGSGTDFTLKISRVEAEDVGVYYCGQGTQVPYTFGQGTKLEIK
notes: one-arm IgG1
B16: CE115HA000/GLS3000 H34K (antibody, IgG1, name in Kabat numbering, V domains shown)
VH: QVQLVESGGGVVQPGRSLRLSCAASGFTFSNAWMHWVRQAPGKGLEWVAQIKAKSNNYATYYAESVKGRFTISRDDSKNSLYLQMNSLKTEDTAVYYCRYVHYGAYYGVDAWGQGTTVTVSS
VL: DIVMTQSPLSLPVTPGEPASISCRSSQSLVHSNRNTYLKWYQQKPGQAPRLLIYKVSNRFSGVPDRFSGSGSGTDFTLKISRVEAEDVGVYYCGQGTQVPYTFGQGTKLEIK
notes: one-arm IgG1
B17: CE115HA000/GLS3000 H27dL (antibody, IgG1, name in Kabat numbering, V domains shown)
VH: QVQLVESGGGVVQPGRSLRLSCAASGFTFSNAWMHWVRQAPGKGLEWVAQIKAKSNNYATYYAESVKGRFTISRDDSKNSLYLQMNSLKTEDTAVYYCRYVHYGAYYGVDAWGQGTTVTVSS
VL: DIVMTQSPLSLPVTPGEPASISCRSSQSLVLSNRNTYLHWYQQKPGQAPRLLIYKVSNRFSGVPDRFSGSGSGTDFTLKISRVEAEDVGVYYCGQGTQVPYTFGQGTKLEIK
notes: one-arm IgG1
B18: CE115HA000/GLS3000 H34A (antibody, IgG1, name in Kabat numbering, V domains shown)
VH: QVQLVESGGGVVQPGRSLRLSCAASGFTFSNAWMHWVRQAPGKGLEWVAQIKAKSNNYATYYAESVKGRFTISRDDSKNSLYLQMNSLKTEDTAVYYCRYVHYGAYYGVDAWGQGTTVTVSS
VL: DIVMTQSPLSLPVTPGEPASISCRSSQSLVHSNRNTYLAWYQQKPGQAPRLLIYKVSNRFSGVPDRFSGSGSGTDFTLKISRVEAEDVGVYYCGQGTQVPYTFGQGTKLEIK
notes: one-arm IgG1
B19: CE115HA000/GLS3000 H27dV (antibody, IgG1, name in Kabat numbering, V domains shown)
VH: QVQLVESGGGVVQPGRSLRLSCAASGFTFSNAWMHWVRQAPGKGLEWVAQIKAKSNNYATYYAESVKGRFTISRDDSKNSLYLQMNSLKTEDTAVYYCRYVHYGAYYGVDAWGQGTTVTVSS
VL: DIVMTQSPLSLPVTPGEPASISCRSSQSLVVSNRNTYLHWYQQKPGQAPRLLIYKVSNRFSGVPDRFSGSGSGTDFTLKISRVEAEDVGVYYCGQGTQVPYTFGQGTKLEIK
notes: one-arm IgG1
B20: CE115HA000/GLS3000 H34F (antibody, IgG1, name in Kabat numbering, V domains shown)
VH: QVQLVESGGGVVQPGRSLRLSCAASGFTFSNAWMHWVRQAPGKGLEWVAQIKAKSNNYATYYAESVKGRFTISRDDSKNSLYLQMNSLKTEDTAVYYCRYVHYGAYYGVDAWGQGTTVTVSS
VL: DIVMTQSPLSLPVTPGEPASISCRSSQSLVHSNRNTYLFWYQQKPGQAPRLLIYKVSNRFSGVPDRFSGSGSGTDFTLKISRVEAEDVGVYYCGQGTQVPYTFGQGTKLEIK
notes: one-arm IgG1
B21: CE115HA000/GLS3000 H27dQ (antibody, IgG1, name in Kabat numbering, V domains shown)
VH: QVQLVESGGGVVQPGRSLRLSCAASGFTFSNAWMHWVRQAPGKGLEWVAQIKAKSNNYATYYAESVKGRFTISRDDSKNSLYLQMNSLKTEDTAVYYCRYVHYGAYYGVDAWGQGTTVTVSS
VL: DIVMTQSPLSLPVTPGEPASISCRSSQSLVQSNRNTYLHWYQQKPGQAPRLLIYKVSNRFSGVPDRFSGSGSGTDFTLKISRVEAEDVGVYYCGQGTQVPYTFGQGTKLEIK
notes: one-arm IgG1

The target in this assay is T1, CD3 epsilon homodimer protein (UniProt P07766 23-126).
T1 construct: also called CD3 (CD3 epsilon)
T1 sequence (P07766 23-126): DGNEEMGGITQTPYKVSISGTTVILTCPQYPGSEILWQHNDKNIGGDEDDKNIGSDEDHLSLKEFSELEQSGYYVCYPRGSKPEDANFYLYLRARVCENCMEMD
Briefly: SPR, antibody over immobilised CD3e homodimer.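 Note: SPR at 25 °C with CD3 epsilon homodimer amine-coupled to a CM4 sensor chip and antibody flowed over as analyte in HBS-EP+ running buffer.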 Background: In SPR one partner is held on a chip, and binding of the other changes the refractive index at the surface.
In the case of B1, the “KD ratio to GLS3000” value was 7.77.

In the case of B2, the “KD ratio to GLS3000” value was 2100. To B3 belongs 1.98; to B4, 1.86. For B5, the “KD ratio to GLS3000” value is 3.05. To B6 belongs 9.21; to B7, 3.43. To B8 belongs 3.43; to B9, 1.08; to B10, 13000.

For the molecule B11, the “KD ratio to GLS3000” value was 1.03. Take B12: the “KD ratio to GLS3000” value came out at 3.8.

On to B13, for which the “KD ratio to GLS3000” value is 0.89. As to B14, the “KD ratio to GLS3000” value was determined as 2.35. Turning to B15, the “KD ratio to GLS3000” value was 8.03.

On to B16, for which the “KD ratio to GLS3000” value is 4.1. Regarding B17, the “KD ratio to GLS3000” value came out at 3.37. To B18 belongs 1.18.

As for B19, the “KD ratio to GLS3000” value stood at 354. As to B20, the “KD ratio to GLS3000” value is 3.5.

With B21, the “KD ratio to GLS3000” value turned out to be 7.48.
